“Also recorded” adds a separate entry of the source.
Columns and labels:
RAW 264.7 cells = test: Cell-permeability of FITC-labeled SOCS3 recombinant proteins (flow cytometry); type: cell-based
Experimental: To examine cell-permeability of SOCS3 recombinant protein, SOCS3 recombinant proteins were conjugated to 5/6-fluorescein isothiocyanate (FITC). RAW 264.7 (KCLB, Seoul, South Korea) (FIG. 20) or NIH3T3 cells (KCLB, Seoul, South Korea) (FIG. 21) were treated with 10 μM FITC-labeled SOCS3 recombinant proteins and cultivated for 1 hr at 37° C.
In this regard, RAW 264.7 cells were cultured in a DMEM medium containing 10% fetal bovine serum (FBS, Hyclone, USA) and […] of 1% penicillin/streptomycin (Hyclone, USA).
After cultivation, the cells were washed three times with ice-cold PBS (Phosphate-buffered saline, Hyclone, USA) and treated with proteinase K (10 μg/mL, SIGMA, USA) to remove surface-bound proteins, and internalized proteins were measured by flow cytometry (FlowJo cytometric analysis software, Guava, Millipore, Darmstadt, Germany). Untreated cells (gray) and equimolar concentration of unconjugated FITC (FITC only, green)-treated cells were served as control (FIG. 20). Each of NIH3T3 cells was incubated for 1 hour at 37° C. with 10 μM FITC-labeled SOCS3 protein. For nuclear staining, a mixture of […] Mounting Medium (Vector laboratories, Burlingame, Calif.) and DAPI (4′,6-diamidino-2-phenylindole) was added to NIH3T3 cells, and visualized using a confocal laser microscope (LSM700, Zeiss, Germany) (FIG. 21).

STAT3 = test: Inhibition of IFN-γ-induced STAT phosphorylation in PANC-1 cells (western blot), STAT3; type: cell-based
Experimental: (§1) PANC-1 Cells (KCLB, Seoul, South Korea) were treated with 10 ng/ml IFN-γ (R&D systems, Abingdon, UK) for 15 min and treated with either DMEM (vehicle) or 10 μM aMTD/SD-fused SOCS3 recombinant proteins for 2 hrs. The cells were lysed in RIPA lysis buffer (Biosesang, Seongnam, Korea) containing proteinase inhibitor cocktail (Roche, Indianapolis, Ind., USA), incubated for 15 min at 4° C., and centrifuged at 13,000 rpm for 10 min at 4° C. Equal amounts of lysates were separated on 10% SDS-PAGE gels and transferred to a nitrocellulose membrane. The membranes were blocked using 5% skim milk in TBST and for western blot analysis incubated with the following antibodies: anti-phospho-STAT1 (Cell Signaling Technology, USA) and anti-phospho-STAT3 (Cell Signaling Technology, USA), then HRP conjugated anti-rabbit secondary antibody (Santacruz).
as §1, with “(vehicle) or 1, 5, 10 μM” for “(vehicle) or 10 μM”, “following antibodies: anti-phospho-STAT3 (Cell” for “following antibodies: anti-phospho-STAT1 (Cell Signaling Technology, USA) and anti-phospho-STAT3 (Cell”

AGS cells = test: Wound cell migration inhibition in gastric carcinoma cells; type: cell-based; conditions: 10 μM 2 hrs, additional 24 hrs
Experimental: AGS cells (gastric cancer cell line) were seeded in a 12 well plate at a density of 2.5×10^5 per well, grown to 90% confluence. Confluent AGS cells were incubated with 10 μM HM#S3B in serum-free medium for 2 hrs prior to changing the growth medium (DMEM/F12, Hyclone, Logan, Utah, USA) and washed twice with PBS, and the monolayer at the center of the well was “wounded” by scraping with a sterilized white pipette tip. Cells were cultured for an additional 24 hrs and cell migration was observed by phase contrast microscopy (Nikon, ECLIPSE Ts2). The migration was quantified by counting the number of cells that migrated from the wound edge into the clear area.

HepG2 cells [1] = test: Transwell migration assay; type: cell-based, human; conditions: 24 hrs, compared with vehicle and non-permeable SOCS3
Experimental: (§2) The lower surface of Transwell inserts (Costar) was coated with 0.1% gelatin, and the membranes were allowed to dry for 1 hr at room temperature. The Transwell inserts were assembled into a 24-well plate, and the lower chamber was filled with growth media containing 10% FBS and FGF2 (40 ng/ml). Cells were added to each upper chamber at a density of 5×10^5, and the plate was incubated at 37° C. in a 5% CO2 incubator for 24 hrs. Migrated cells were stained with 0.6% hematoxylin and 0.5% eosin and counted.

Huh-7 cells = test: Transwell migration assay; type: cell-based, human; conditions: 24 hrs, compared with vehicle and non-permeable SOCS3
Experimental: as §2

SK-Hep-1 cells = test: Transwell migration assay; type: cell-based, human; conditions: 24 hrs, compared with vehicle and non-permeable SOCS3
Experimental: as §2

HepG2 cells [2] = test: Invasion assay (matrigel-coated Transwell); type: cell-based, human; conditions: 24 hrs, compared with the control proteins
Experimental: as §2, with “gelatin, the upper surface of Transwell inserts was coated with matrigel (40 μg per well; BD Pharmingen, San Diego, Calif., USA),” for “gelatin,”, “Cells (5×10^5)” for “Cells”, “chamber,” for “chamber at a density of 5×10^5,”

Chang liver cells = test: Induction of apoptosis, TUNEL assay; type: cell-based, human; conditions: 10 μM, 24 hr, 2% fetal bovine serum
Experimental: (§3) Apoptotic cells were analyzed using terminal dUTP nick-end labeling (TUNEL) assay with In Situ Cell Death Detection kit TMR red (Roche, 4056 Basel, Switzerland). Cells were treated for 24 hr with 10 μM HS3B or HM165S3B proteins with 2% fetal bovine serum and apoptotic cells were visualized by TUNEL staining. Treated cells were washed with cold PBS two times, fixed in 4% paraformaldehyde (PFA, Junsei, Tokyo, Japan) for 1 hr at room temperature, and incubated in 0.1% Triton X-100 for 2 min on the ice. Cells were washed with cold PBS twice, and treated TUNEL reaction mixture for 1 hr at 37° C. in dark, washed cold PBS three times and observed by fluorescence microscopy (Nikon, Tokyo, Japan). Cisplatin® (IC50: 30 μM) was used for reference drug.

Huh7 cells = test: Induction of apoptosis, TUNEL assay; type: cell-based, human; conditions: 10 μM, 24 hr, 2% fetal bovine serum
Experimental: as §3

B1: HM165S3B: His-tagged recombinant protein of aMTD165, human SOCS3 and solubilization domain B; prototype improved cell-permeable SOCS3 (protein)
chain: MGSSHHHHHHSSGLVPRGSHMALAVPVALAIVPVTHSKFPAAGMETSRPLDTSLRLKTFSSKSEYQLVVNAVRKLQESGFYWSAVTGGEANLLLSAEPAGTFLIRDSSDQRHFFTLSVKTQSGTKNLRIQCEGGSFSLQSDPRSTQPVPRFDCVLKLVHHYMETPPPGAPSFPSPPTEPSSEVPEQPSAQPLPGSPPRRAYYIYSGGEKIPLVLSRPLSSNVATLQHLCRKTVNGHLDSYEKVTQLPGPIREFLDQYDAPLGSMAEQSDKDVKYYTLEEIQKHKDSKSTWVILHHKVYDLTKFLEEHPGGEEVLGEQAGGDATENFEDVGHSTDARELSKTYIIGELHPDDRSKIAKPSETL
modifications: Amino acid sequence of HM165S3B
dose-dependency of cell-permeability (RAW 264.7 cells; 0.05 μM~10 μM, 1 hrs): dose-dependent | cell-permeability (protein uptake) (RAW 264.7 cells; 10 μM FITC-labeled protein, 1 hr, 37° C.): efficiently entered the cells; also recorded: very efficient; also recorded: showed the highest cell-permeability; also recorded: high cell permeability | time-dependency of cell-permeability (RAW 264.7 cells; 10 μM, 5~180 minutes): high level of cell-permeability of iCP-SOCS3 was observed only 5 minutes post-treatment and could be seen even at 180 minutes mark | IFN-γ-induced phosphorylation of STAT3 (STAT3; PANC-1, 10 ng/ml IFN-γ 15 min, 10 μM protein 2 hrs): suppressed IFN-γ-induced phosphorylation of STAT1 and STAT3 | IFN-γ-induced phosphorylation of STAT3 (STAT3; PANC-1, 10 ng/ml IFN-γ 15 min, 1, 5, 10 μM protein 2 hrs): suppressed IFN-γ-induced phosphorylation of STAT3 in dose dependent manner | inhibition of cell migration (wound) (AGS cells): inhibiting migration of gastric carcinoma cells | inhibition of cell migration (wound) (AGS cells; listed as aMTD165-fused SOCS3 recombinant protein): showed the most effective inhibition of cancer cell migration | Transwell migration, HepG2 (HepG2 cells [1]): significant inhibitory effect on their Transwell migration | Transwell migration, Huh-7 (Huh-7 cells): significant inhibitory effect on their Transwell migration | Transwell migration, SK-Hep-1 (SK-Hep-1 cells): significant inhibitory effect on their Transwell migration | invasion, HepG2 (HepG2 cells [2]): remarkable decrease in invasion | induction of apoptosis (TUNEL), Chang liver cells (Chang liver cells): did not induce apoptosis | induction of apoptosis (TUNEL), Huh7 (Huh7 cells): considerably efficient inducer of apoptosis
